Our source for the IC50 and IC50Nb10/IC50Nb33 values is patent publication US20150376261A1.

The target in assay [1] is hMor1-34GS-Nb33 (human). The assay is described as follows: radioligand competition against [3H]-diprenorphine on Sf9 membranes. Background: In a radioligand displacement assay an active substance lowers the binding of a labelled ligand.
For another assay, the target named is hMor1-34GS-Nb10 (human). The description is as above.
In assay [2] the target is hMor1-34GS-Nb33 (human). The assay is described as follows: ratio of the IC50s on hMor1-34GS-Nb10 (reference) and hMor1-34GS-Nb33 membranes, [3H]-diprenorphine competition.

As a reminder, the IC50 is the concentration needed to halve the response being measured. The low end stands for higher potency, the high end for lower potency. As for Dmt1-Dalda (peptide), the IC50 with hMor1-34GS-Nb33 (human) [1] came to 18 nM; in the assay with hMor1-34GS-Nb10 (human), 655 nM.

Take KGOP01 (peptide): the results for the IC50 with hMor1-34GS-Nb33 (human) [1] and in the assay with hMor1-34GS-Nb10 (human) were 3.8 nM and 76.7 nM, respectively. In addition, in the assay with hMor1-34GS-Nb33 (human) [2], the IC50Nb10/IC50Nb33 is 20.
